# Source: patent US20240116985A1, “STAPLED PEPTIDES AND METHODS THEREOF” (priority 2020, published 2024)
# Starred links: 1 amine or outer side, 2 acyl side, 3 side chain; linkers in the order of their positions; H or OH if unused. Positions of bridges follow the written chain, without caps; N, C: chain ends. Non-standard residues stand in square brackets, D forms with d. Primed or numbered codes have the meaning given here. PyrS2″ = (S)-3-amino-1-((pent-4-en-1-yloxy)carbonyl)pyrrolidine-3-carboxylic acid (stapling residue), C=CCCCOC(=O)N1CC[C@@](N[*:1])(C(=O)[*:2])C1; SeN″ = (S)-5-(((allyloxy)carbonyl)(methyl)amino)-2-amino-2-methylpentanoic acid (stapling residue), C=CCOC(=O)N(C)CCC[C@](C)(N[*:1])C(=O)[*:2]; B5(4) = 2,2-bis(4-pentenyl)glycine = 2-amino-2-(pent-4-en-1-yl)hept-6-enoic acid (stitching residue), C=CCCCC(CCCC=C)(N[*:1])C(=O)[*:2]; TfeGA = (S)-2-amino-3-((carboxymethyl)(2,2,2-trifluoroethyl)amino)propanoic acid, O=C([C@H](CN(CC(=O)[*:3])CC(F)(F)F)N[*:1])[*:2]; B5(12) = 2-amino-2-(pent-4-en-1-yl)hept-6-enoic acid (two olefin side chains), C=CCCCC(CCCC=C)(N[*:1])C(=O)[*:2]; B5(19) = 2-amino-2-(pent-4-en-1-yl)hept-6-enoic acid (bis(4-pentenyl)glycine), C=CCCCC(CCCC=C)(N[*:1])C(=O)[*:2]; B5(3) = 2,2-bis(4-pentenyl)glycine (stitching residue), C=CCCCC(CCCC=C)(N[*:1])C(=O)[*:2]; B5 = 2-amino-2-(pent-4-en-1-yl)hept-6-enoic acid, C=CCCCC(CCCC=C)(N[*:1])C(=O)[*:2]; Phe(3-CONH2) = NC(=O)c1cccc(C[C@H](N)C(=O)O)c1; Phe(3-COOH) = N[C@@H](Cc1cccc(C(=O)O)c1)C(=O)O; Phe(3-Cl) = N[C@@H](Cc1cccc(Cl)c1)C(=O)O; Phe(3-OMe) = COc1cccc(C[C@H](N)C(=O)O)c1; Phe(3-F) = N[C@@H](Cc1cccc(F)c1)C(=O)O; Phe(3-Me) = Cc1cccc(C[C@H](N)C(=O)O)c1; Ala(cPent) = N[C@@H](CC1CCCC1)C(=O)O; Bta = N[C@@H](Cc1csc2ccccc12)C(=O)O; Lys(iPr) = CC(C)NCCCC[C@H](N)C(=O)O; αAllylPro = C=CC[C@@]1(C(=O)O)CCCN1; tBuAla = CC(C)(C)C[C@H](N)C(=O)O; 2Pal = N[C@@H](Cc1ccccn1)C(=O)O; 3Pal = N[C@@H](Cc1cccnc1)C(=O)O; 4Pal = N[C@@H](Cc1ccncc1)C(=O)O; 2Thi = N[C@@H](Cc1cccs1)C(=O)O; 3Thi = N[C@@H](Cc1ccsc1)C(=O)O; Cha = N[C@@H](CC1CCCCC1)C(=O)O; S8 = C=CCCCCCC[C@](C)(N)C(=O)O; PyrS2(4) = not defined here; hSer = N[C@@H](CCO)C(=O)O; Nle = CCCC[C@H](N)C(=O)O; Aib = CC(C)(N)C(=O)O
# Legend:
# [1] = target: full-length beta-Catenin (Uniprot ID P35222) (Homo sapiens (Human)) (UniProt P35222); assay: fluorescence polarization competition; 10 nM full-length beta-catenin with 10 nM 5FAM-labeled TCF4 residues 10-53 probe (competitor displaced)
# Target sequence in this assay (P35222 2-781 limits assumed): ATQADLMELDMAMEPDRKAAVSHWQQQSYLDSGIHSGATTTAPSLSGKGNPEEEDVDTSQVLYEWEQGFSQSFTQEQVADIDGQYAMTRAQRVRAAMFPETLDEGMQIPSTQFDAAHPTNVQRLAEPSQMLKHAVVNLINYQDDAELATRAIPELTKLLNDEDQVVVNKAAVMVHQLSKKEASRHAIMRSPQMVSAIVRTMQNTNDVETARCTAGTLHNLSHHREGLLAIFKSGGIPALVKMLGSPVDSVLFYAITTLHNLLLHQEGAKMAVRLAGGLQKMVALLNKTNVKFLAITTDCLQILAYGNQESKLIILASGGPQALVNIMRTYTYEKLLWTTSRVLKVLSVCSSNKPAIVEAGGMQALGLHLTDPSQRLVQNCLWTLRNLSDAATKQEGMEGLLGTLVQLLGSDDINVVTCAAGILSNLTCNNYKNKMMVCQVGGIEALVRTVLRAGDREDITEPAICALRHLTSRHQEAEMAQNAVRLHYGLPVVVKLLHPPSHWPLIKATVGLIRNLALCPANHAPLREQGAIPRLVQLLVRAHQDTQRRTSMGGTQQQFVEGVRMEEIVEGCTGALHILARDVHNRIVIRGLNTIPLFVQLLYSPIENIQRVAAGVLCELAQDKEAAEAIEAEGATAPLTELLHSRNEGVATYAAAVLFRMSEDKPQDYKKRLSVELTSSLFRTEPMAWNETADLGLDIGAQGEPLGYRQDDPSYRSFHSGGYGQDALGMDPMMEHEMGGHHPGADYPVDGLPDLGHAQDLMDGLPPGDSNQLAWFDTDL
# [2] = target: full-length beta-Catenin (Uniprot ID P35222) (Homo sapiens (Human)) (UniProt P35222); assay: fluorescence polarization competition; full-length beta-catenin with 5FAM-labeled TCF4 (residues 10-53) probe as competitor
# Target sequence in this assay (P35222 whole entry, the tested form may be a part): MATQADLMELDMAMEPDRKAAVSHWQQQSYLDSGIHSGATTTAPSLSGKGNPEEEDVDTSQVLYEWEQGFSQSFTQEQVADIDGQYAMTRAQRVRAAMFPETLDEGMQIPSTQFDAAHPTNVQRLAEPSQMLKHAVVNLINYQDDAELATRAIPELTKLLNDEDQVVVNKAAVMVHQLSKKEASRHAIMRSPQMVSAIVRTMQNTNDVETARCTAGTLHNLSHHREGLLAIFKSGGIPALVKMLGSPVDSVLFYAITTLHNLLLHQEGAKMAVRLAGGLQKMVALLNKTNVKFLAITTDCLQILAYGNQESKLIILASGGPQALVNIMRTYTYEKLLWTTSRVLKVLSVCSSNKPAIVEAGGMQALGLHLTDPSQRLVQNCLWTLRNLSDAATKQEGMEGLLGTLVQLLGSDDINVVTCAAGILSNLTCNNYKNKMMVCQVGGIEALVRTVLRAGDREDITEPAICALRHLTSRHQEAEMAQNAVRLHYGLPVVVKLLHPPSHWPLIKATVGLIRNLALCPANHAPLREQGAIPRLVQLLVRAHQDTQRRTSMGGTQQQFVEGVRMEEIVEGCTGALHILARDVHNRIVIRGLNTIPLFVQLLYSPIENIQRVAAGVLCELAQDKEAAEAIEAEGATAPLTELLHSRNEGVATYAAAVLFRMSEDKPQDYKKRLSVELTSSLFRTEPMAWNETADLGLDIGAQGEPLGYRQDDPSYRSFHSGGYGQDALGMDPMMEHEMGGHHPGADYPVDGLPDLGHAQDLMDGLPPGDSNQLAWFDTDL
# [3] = target: full-length beta-Catenin (Uniprot ID P35222) (Homo sapiens (Human)) (UniProt P35222); assay: fluorescence polarization competition; 10 nM full-length beta-catenin + 10 nM 5FAM-TCF4(10-53) probe, peptide titrated
# Target sequence in this assay (P35222 2-781 limits assumed): as the sequence (P35222 2-781 limits assumed) above
# [4] = target: full-length beta-Catenin (Uniprot ID P35222) (Homo sapiens (Human)) (UniProt P35222); assay: fluorescence polarization competition; 10 nM full-length beta-catenin, competitor 10 nM 5FAM-TCF4(10-53)
# Target sequence in this assay (P35222 whole entry, the tested form may be a part): as the sequence (P35222 whole entry, the tested form may be a part) above
# [5] = target: full-length beta-Catenin (Uniprot ID P35222) (Homo sapiens (Human)) (UniProt P35222); assay: fluorescence polarization competition; full-length beta-catenin, 5FAM-TCF4(10-53) probe displaced
# Target sequence in this assay (P35222 whole entry, the tested form may be a part): as above
Binder,IC50 [1] [µM],IC50 [2] [µM],further results
"Ac-[αAllylPro]DA[B5(4)]D[TfeGA]AA[Phe(3-Me)]Q[S8][Phe(3-F)][Bta]Q-NH2 (staple 1-4, 4-11) [I-404]",–,1.85,EC50 [3]: 1.85 µM
"Ac-[αAllylPro]DA[B5(4)]D[2Thi]AAFV[S8][Phe(3-F)][Bta]Q-NH2 (staple 1-4, 4-11) [I-402]",–,5,EC50 [3]: 5 µM
"Ac-[αAllylPro]N[Cha][B5(19)]DQ[Lys(iPr)]AFN[PyrS2″][Phe(3-Cl)][Bta][hSer]-NH2 (staple 1-4, 4-11) [I-1928]",0.887,–,–
"Ac-[αAllylPro]D[tBuAla][B5(12)]D[Phe(3-COOH)][Nle]AFL[PyrS2(4)][3Thi][Bta]F-NH2 (staple 1-4, 4-11; not fully specified; printed as Ac-PL3-Asp-Npg-B5-Asp-3COOHF-nLeu-Ala-Phe-Leu-PyrS2-3Thi-BztA-Phe-NH2; reading uncertain) [I-1913]",0.119,–,–
"Ac-[αAllylPro]N[Cha][B5(19)]DQ[Lys(iPr)]AFN[PyrS2″][Phe(3-CONH2)][Bta][hSer]-NH2 (staple 1-4, 4-11) [I-1929]",0.074,–,–
"Ac-[αAllylPro]N[Cha][B5(19)]D[hSer][Lys(iPr)]AFN[PyrS2″]F[Bta][hSer]-NH2 (staple 1-4, 4-11) [I-1933]",0.154,–,–
"Ac-[αAllylPro]N[Cha][B5(19)]DQ[Lys(iPr)]AFN[PyrS2″][3Pal][Bta][hSer]-NH2 (staple 1-4, 4-11) [I-1927]",5.14,–,–
"Ac-[αAllylPro]N[Cha][B5(19)]DQ[Lys(iPr)]SFN[PyrS2″]F[Bta][hSer]-NH2 (staple 1-4, 4-11) [I-1931]",1.56,–,–
"Ac-[αAllylPro]N[Cha][B5(12)]DQ[Lys(iPr)]AF[hSer][PyrS2(4)]F[Bta][hSer]-NH2 (staple 1-4, 4-11; not fully specified; printed as Ac-PL3-Asn-Cha-B5-Asp-Gln-iPrLys-Ala-Phe-Hse-PyrS2-Phe-BztA-Hse-NH2; reading uncertain) [I-1922]",0.457,–,–
"Ac-[αAllylPro]D[tBuAla][B5(3)]NDAAFL[PyrS2″][3Thi][Bta]Q-NH2 (staple 1-4, 4-11) [Ac-PL3-Asp-Npg-B5-Asn-Asp-Ala-Ala-Phe-Leu-PyrS2-3Thi-BztA-Gln-NH2]",–,–,IC50 [5]: 0.04 µM
"Ac-[αAllylPro]DI[B5(3)]DEAAFQ[S8]F[Bta]-NH2 (staple 1-4, 4-11; also: staple isomer composition, later eluting HPLC peak) [I-409]",–,0.07,EC50 [3]: 0.07 µM
"Ac-[αAllylPro]DA[B5(3)]D[TfeGA]AA[Phe(3-Me)]Q[SeN″][Phe(3-F)][Bta]Q-NH2 (staple 1-4, 4-11) [I-405]",–,3.82,EC50 [3]: 3.82 µM
"Ac-[αAllylPro]DI[B5(3)]DEAAFQ[S8]F[Bta]-NH2 (staple 1-4, 4-11; also: staple isomer composition, earlier eluting HPLC peak) [I-408]",–,0.12,EC50 [3]: 0.12 µM
"Ac-[αAllylPro]DA[B5(4)]DEAAFV[S8][4Pal][Bta]Q-NH2 (staple 1-4, 4-11) [I-385]",–,3.15,EC50 [4]: 3.15 µM
"Ac-[αAllylPro]DA[B5]DEAA[2Pal]V[S8]F[Bta]Q-NH2 (staple 1-4, 4-11; not fully specified; printed as Ac-PL3-Asp-Ala-B5-Asp-Glu-Ala-Ala-2pyrA-Val-S8-Phe-BztA-Gln-NH2) [I-386]",–,5,EC50 [4]: 5 µM
"Ac-[αAllylPro]DA[B5(4)]DEAA[2Thi]Q[S8][Phe(3-F)][Bta]Q-NH2 (staple 1-4, 4-11) [I-401]",–,0.134,EC50 [3]: 0.134 µM
"Ac-[αAllylPro]D[tBuAla][B5(3)]NDAAFN[PyrS2″][3Thi][Bta]Q-NH2 (staple 1-4, 4-11) [Ac-PL3-Asp-Npg-B5-Asn-Asp-Ala-Ala-Phe-Asn-PyrS2-3Thi-BztA-Gln-NH2]",–,–,IC50 [5]: 0.032 µM

# Second part, led by results:
IC50 [1] [µM],IC50 [2] [µM],Binder,further results
0.475,–,"Ac-[αAllylPro]N[Cha][B5(19)]DQ[Lys(iPr)]A[Phe(3-CONH2)]N[PyrS2″]F[Bta][hSer]-NH2 (staple 1-4, 4-11) [I-1925]",–
10,–,"Ac-[αAllylPro]N[Cha][B5(12)]DQ[Lys(iPr)]A[3Pal]N[PyrS2(4)]F[Bta][hSer]-NH2 (staple 1-4, 4-11; not fully specified; printed as Ac-PL3-Asn-Cha-B5-Asp-Gln-iPrLys-Ala-3PyrA-Asn-PyrS2-Phe-BztA-Hse-NH2; reading uncertain) [I-1923]",–
1.61,–,"Ac-[αAllylPro]N[Cha][B5(12)]DQ[Lys(iPr)]A[Phe(3-Cl)]N[PyrS2(4)]F[Bta][hSer]-NH2 (staple 1-4, 4-11; not fully specified; printed as Ac-PL3-Asn-Cha-B5-Asp-Gln-iPrLys-Ala-3C1F-Asn-PyrS2-Phe-BztA-Hse-NH2; reading uncertain) [I-1924]",–
0.005,–,"Ac-[αAllylPro]D[tBuAla][B5(4)]D[Phe(3-COOH)]QAFL[PyrS2(4)][3Thi][Bta]A-NH2 (staple 1-4, 4-11; not fully specified; printed as Ac-PL3-Asp-Npg-B5-Asp-3COOHF-Gln-Ala-Phe-Leu-PyrS2-3Thi-BztA-Ala-NH2; reading uncertain) [I-1918]",–
–,0.177,"Ac-[αAllylPro]DA[B5(4)]DEAAFV[S8][2Pal][Bta]Q-NH2 (staple 1-4, 4-11; also: later eluting staple isomer) [I-384]",–
1.56,–,"Ac-[αAllylPro]N[Cha][B5(19)]DQ[Lys(iPr)]AFN[PyrS2″][Phe(3-OMe)][Bta][hSer]-NH2 (staple 1-4, 4-11) [I-1930]",–
0.052,–,"Ac-[αAllylPro]D[tBuAla][B5(12)]D[Phe(3-COOH)][Aib]AFL[PyrS2(4)][3Thi][Bta]F-NH2 (staple 1-4, 4-11; not fully specified; printed as Ac-PL3-Asp-Npg-B5-Asp-3COOHF-Aib-Ala-Phe-Leu-PyrS2-3Thi-BztA-Phe-NH2; reading uncertain) [I-1914]",–
–,0.189,"Ac-[αAllylPro]D[Nle][B5(3)]DEAAFA[S8]F[Bta]Q-NH2 (staple 1-4, 4-11) [I-411]",EC50 [3]: 0.189 µM
–,5,"Ac-[αAllylPro]DA[B5(4)]DEAAFV[S8][Phe(3-Me)][Bta]Q-NH2 (staple 1-4, 4-11) [I-395]",EC50 [4]: 5 µM
0.417,–,"Ac-[αAllylPro]N[Cha][B5(19)]DQ[Lys(iPr)]A[Phe(3-OMe)]N[PyrS2″]F[Bta][hSer]-NH2 (staple 1-4, 4-11) [I-1926]",–
–,2.62,"Ac-[αAllylPro]DA[B5]DEAA[2Pal]V[S8]F[Bta]Q-NH2 (staple 1-4, 4-11; not fully specified; printed as Ac-PL3-Asp-Ala-B5-Asp-Glu-Ala-Ala-2pyrA-Val-S8-Phe-BztA-Gln-NH2) [I-387]",EC50 [4]: 2.62 µM
0.008,–,"Ac-[αAllylPro]D[tBuAla][B5(4)]D[Phe(3-COOH)]HAFL[PyrS2(4)][3Thi][Bta]A-NH2 (staple 1-4, 4-11; not fully specified; printed as Ac-PL3-Asp-Npg-B5-Asp-3COOHF-His-Ala-Phe-Leu-PyrS2-3Thi-BztA-Ala-NH2; reading uncertain) [I-1916]",–
–,1.95,"Ac-[αAllylPro]DA[B5]DEAAFV[S8][Ala(cPent)][Bta]Q-NH2 (staple 1-4, 4-11) [I-393]",EC50 [4]: 1.95 µM
–,5,"Ac-[αAllylPro]DA[B5]DEAA[Ala(cPent)]V[S8]F[Bta]Q-NH2 (staple 1-4, 4-11) [I-392]",EC50 [4]: 5 µM
